Results from patent US6780986.

Experiments:
[1] = molecular target: T1, GST-Z1 (GST fused to the Z1 domain of RIP60, zinc fingers 1-5)
T1 chain: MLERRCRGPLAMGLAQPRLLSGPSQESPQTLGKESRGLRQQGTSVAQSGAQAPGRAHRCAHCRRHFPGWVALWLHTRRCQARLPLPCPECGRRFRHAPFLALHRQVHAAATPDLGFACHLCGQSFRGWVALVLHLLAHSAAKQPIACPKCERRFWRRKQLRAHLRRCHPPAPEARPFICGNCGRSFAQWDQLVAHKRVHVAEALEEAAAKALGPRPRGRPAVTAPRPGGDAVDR

[2] = molecular target: T2, GST-Z2 (GST fused to the Z2 domain of RIP60, zinc fingers 6-8 plus 37 amino acids of the proline rich region)
T2 chain: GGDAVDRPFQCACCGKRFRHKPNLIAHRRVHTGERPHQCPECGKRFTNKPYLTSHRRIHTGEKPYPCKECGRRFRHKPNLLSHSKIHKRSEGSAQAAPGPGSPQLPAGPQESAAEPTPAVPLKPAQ

GST-Z2-P123 = molecular target: T3, GST-Z2-P123
T3 chain: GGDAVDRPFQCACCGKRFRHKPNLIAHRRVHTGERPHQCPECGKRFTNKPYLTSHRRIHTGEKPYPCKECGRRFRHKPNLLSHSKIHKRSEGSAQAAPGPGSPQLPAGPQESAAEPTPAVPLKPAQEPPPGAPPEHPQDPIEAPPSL

[3] = molecular target: T4, GST-Z3 (GST fused to the Z3 domain of RIP60, zinc fingers 9-15)
T4 chain: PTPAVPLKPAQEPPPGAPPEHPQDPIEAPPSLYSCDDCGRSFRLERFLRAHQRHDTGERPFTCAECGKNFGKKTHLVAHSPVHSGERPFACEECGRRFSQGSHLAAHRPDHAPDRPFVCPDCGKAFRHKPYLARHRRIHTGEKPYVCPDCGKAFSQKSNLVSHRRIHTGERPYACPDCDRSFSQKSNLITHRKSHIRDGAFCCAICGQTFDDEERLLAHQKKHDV

B1: casein kinase II (CKII; New England Biolabs) (protein)
chain 1: MSGPVPSRARVYTDVNTHRPREYWDYESHVVEWGNQDDYQLVRKLGRGKYSEVFEAINITNNEKVVVKILKPVKKKKIKREIKILENLRGGPNIITLADIVKDPVSRTPALVFEHVNNTDFKQLYQTLTDYDIRFYMYEILKALDYCHSMGIMHRDVKPHNVMIDHEHRKLRLIDWGLAEFYHPGQEYNVRVASRYFKGPELLVDYQMYDYSLDMWSLGCMLASMIFRKEPFFHGHDNYDQLVRIAKVLGTEDLYDYIDKYNIELDPRFNDILGRHSRKRWERFVHSENQHLVSPEALDFLDKLLRYDHQSRLTAREAMEHPYFYTVVKDQARMGSSSMPGGSTPVSSANMMSGISSVPTPSPLGPLAGSPVIAAANPLGMPVPAAAGAQQ
chain 2: not shown
- phosphorylation in vitro (32P-ATP, SDS gel, autoradiography) [1]: neither GST-Z1 nor GST-Z3 were phosphorylated to any great degree
- phosphorylation in vitro (32P-ATP, SDS gel, autoradiography) [2]: Only the GST-Z2 polypeptide, which contains the casein kinase II phosphorylation domain was phosphorylated
- phosphorylation in vitro with and without DNA (32P-ATP, SDS gel, autoradiography) [2]: GST-Z2 polypeptide was phosphorylated by casein kinase II in the absence of DNA. However, the extent of phosphorylation increased in the presence of the double stranded DRS oligo, the linearized plasmid pCH127 and the supercoiled pCH127
- phosphorylation in vitro (32P-ATP, SDS gel, autoradiography) (GST-Z2-P123): Both GST-Z2 and GST-Z2P123 were phosphorylated
- phosphorylation in vitro (32P-ATP, SDS gel, autoradiography) [3]: neither GST-Z1 nor GST-Z3 were phosphorylated to any great degree
